From US20250340881A1, “PHARMACEUTICAL COMPOSITION FOR TREATING CANCER COMPRISING FOXM1 MUTANT OR FOXM1 SHRNA” (Industry-University Cooperation Foundation Hanyang …, priority 2022, published 2025)
Numbering of substitutions follows the chain as printed. Names may count otherwise.

B1: S25E: FoxM1 phosphorylated point mutant of the S25 residue, expressed by lentivirus in A549 cells (protein, listed as Homo sapiens)
chain: MKTSPRRPLILKRRRLPLPVQNAPEETSEEEPKRSPAQQESNQAEASKEVAESNSCKFPAGIKIINHPTMPNTQVVAIPNNANIHSIITALTAKGKESGSSGPNKFILISCGGAPTQPPGLRPQTQTSYDAKRTEVTLETLGPKPAARDVNLPRPPGALCEQKRETCDGEAAGCTINNSLSNIQWLRKMSSDGLGSRSIKQEMEEKENCHLEQRQVKVEEPSRPSASWQNSVSERPPYSYMAMIQFAINSTERKRMTLKDIYTWIEDHFPYFKHIAKPGWKNSIRHNLSLHDMFVRETSANGKVSFWTIHPSANRYLTLDQVFKQQQKRPNPELRRNMTIKTELPLGARRKMKPLLPRVSSYLVPIQFPVNQSLVLQPSVKVPLPLAASLMSSELARHSKRVRIAPKVLLAEEGIAPLSSAGPGKEEKLLFGEGFSPLLPVQTIKEEEIQPGEEMPHLARPIKVESPPLEEWPSPAPSFKEESSHSWEDSSQSPTPRPKKSYSGLRSPTRCVSEMLVIQHRERRERSRSRRKQHLLPPCVDEPELLFSEGPSTSRWAAELPFPADSSDPASQLSYSQEVGGPFKTPIKETLPISSTPSKSVLPRTPESWRLTPPAKVGGLDFSPVQTSQGASDPLPDPLGLMDLSTTPLQSAPPLESPQRLLSSEPLDLISVPFGNSSPSDIDVPKPGSPEPQVSGLAANRSLTEGLVLDTMNDSLSKILLDISFPGLDEDPLGPDNINWSQFIPELQ
B2: S25A: FoxM1 protein with Ser25 substituted with alanine, non-phosphorylated point mutant, expressed by lentivirus in A549 cells (protein)
chain: B1 chain with E25A
modifications: left off: a dimerising Fc or GST
notes: FoxM1 protein with Ser25 substituted with alanine, non-phosphorylated point mutant, expressed by lentivirus in A549 cells

Key:
A549 cells [1] = experiment: MTT viability of A549 cells co-cultured with THP-1 cells; type: cell-based; settings: ratios 1:0, 1:2, 1:4, 1:6, 48 hours
Method: The cell viability was measured to investigate whether the FoxM1 phosphorylation and non-phosphorylation point mutations affected the viability of lung cancer cells, after co-culturing the lung cancer cells (A549) expressing the FoxM1 phosphorylation and non-phosphorylated point mutants and monocyte THP-1 cells. A549 cells (4×10^4 cells/mL) and THP-1 cells were co-cultured at ratios of 1:0, 1:2, 1:4, and 1:6 for 48 hours, and after co-culturing for 48 h and washing off the THP-1 cells, the viability of A549 cells attached to the bottom was measured by an MTT assay.

A549 cancer cells = experiment: Tail vein injection metastatic cancer animal model with A549 cells expressing FoxM1 mutants; type: in vivo, mice; settings: for cancer metastasis to lung and tumorigenesis (tumorigenicity): A549 cells expressing the mutant injected into tail vein of mice; for degree of cancer cell proliferation by H&E and Ki67 staining: lung tissue of injected mice
Method: To observe the tumorigenic potential of cancer cells in animal models, the present inventors aimed to evaluate the tumorigenicity-promoting and -suppressing effects of cancer cells by using cancer cells expressing phosphorylation and non-phosphorylated point mutants of FoxM1 S25 residue.
Specifically, A549 cancer cells (2×10^6 cells) stably expressing FoxM1 protein containing point mutations were diluted in PBS and injected into the tail vein of mice. The mice were raised for 8 weeks, and then laparotomy was performed to observe cancer cell metastasis and tumorigenesis in organs.

A549 cells [2] = experiment: PD-L1 (CD274) mRNA in A549 cells by real-time PCR; type: cell-based
Method: To examine the mRNA expression levels of PD-1 and PD-L1, which are involved in solid tumor immune evasion, in THP-1 cells and the cells expressing the FoxM1 phosphorylated point mutant, the expression of PD-1 (CD279) mRNA, an immune evasion factor, was measured by qRT-PCR in THP-1 monocytes co-cultured with A549^S25E cells for 48 h (FIG. 7B). It was observed that the expression of mRNA of PD-L1 (CD274), an immune evasion factor, increased by 2 folds in the A549^S25E cells expressing the phosphorylated point mutant compared to the control group.

A549 cells [3] = experiment: Viability of A549 cells co-cultured with Jurkat cells; type: cell-based
Excerpt: In addition, through the co-culture of the A549 cells expressing the FoxM1 S25E phosphorylated point mutant (A549^S25E) and Jurkat cells as T cells, it was tried to examine the effects on cancer immunity of T cells (FIG. 7D).

A549 lung cancer cells = experiment: Matrigel invasion assay of A549 cells expressing FoxM1 WT or point mutants; type: cell-based; settings: for invasion of cancer cells (in words): Matrigel invasion assay, A549
Method: To observe the effects of the WT, phosphorylation, and non-phosphorylated point mutants of FoxM1 proteins on the invasion of cancer cells, an invasion assay using Matrigel was performed in lung cancer cells A549 expressing these mutants.
Specifically, after completely dissolving Matrigel at 4° C. for 16-20 hours, Matrigel was diluted with cold serum-free RPMI 1640 (4° C.) to 1 mg/ml. 100 μl of Matrigel mixture (1 mg/ml) was added to an […] 24-well insert and solidified in a 37° C. incubator for 12-20 hours. 1×10^5 cells/well of lung cancer cells A549 expressing each WT, phosphorylation, and non-phosphorylated point mutant FoxM1 proteins were diluted in serum-free RPMI 1640 (36° C.) and dispensed onto the insert. 0.5 ml/well of warm RPMI 1640 (10% FBS) at 36° C. was dispensed to the insert. For the positive control group, 0.5 ml of RPMI 1640 (10% FBS) containing 5 ng/ml TGF-β at 36° C. was used. The medium was changed once every 3 days, and the degree of invasion was observed. On the 7th day, when sufficient cancer cell invasion was observed, the medium was removed, washed with 1×PBS, and the cells inside the insert were scraped with a cotton swab and washed with 1×PBS to remove any remaining cells and Matrigel inside the insert. 500 μl of 4% paraformaldehyde was dispensed into the 24 wells with the outer surface of the insert, incubated at room temperature for 5 minutes, washed three times with 1×PBS, and stained with 0.05% crystal violet solution for 5 minutes. After 5 minutes, it was washed five times with 1×PBS and dissolved in DMSO. The degree of staining was determined by measuring the absorbance at 590 nm.
Specifically, Matrigel was completely solved at 4° C. for 16-20 hours and diluted to 1 mg/ml in cold serum free RPMI 1640 (4° C.). 100 μl of Matrigel mixture (1 mg/ml) was added into […] 24-well insert and solidified in a 37° C. incubator for 12-20 hours. A549 lung cancer cells expressing Mock or the experimental group FoxM1 WT protein were dispensed on the solidified Matrigel insert with 1×10^5 cells/well diluted in serum free RPMI 1640 (36° C.), and 0.5 ml/well of 36° C. of warm RPMI 1640 (10% FBS) were dispensed. For the positive control group, 0.5 ml of 36° C. RPMI 1640 (10% FBS) containing 5 ng/ml of TGF-β were dispensed. Then, once in 3 days, the medium was changed, and the level of invasion was observed. […] 500 ul of 4% paraformaldehyde was dispensed into 24 wells where the outer surface of the insert was placed, incubated for 5 minutes at room temperature, washed three times with 1×PBS, and stained with 0.05% crystal-violet solution for 5 minutes. After 5 minutes, they were washed 5 times with 1×PBS, and the degree of staining was dissolved in DMSO, and the wavelength was measured at 590 nm.

A549 cells [4] = experiment: MTT viability of A549 cells co-cultured with THP-1 cells and Jurkat cells; type: cell-based; settings: ratios 1:0:0, 1:6:0, 1:0:6, 1:6:6, 48 h
Method: To investigate the polarization into tumor-infiltrating T lymphocytes (TILs) by A549^S25E cells, the expression levels of CD25 and CD29, which were expressed in TILs, were analyzed by qRT-PCR after co-culturing Jurkat cells (1.2×10^5 cells) and A549^S25E cells (4×10^4 cells) for 48 h. As a result, it was observed that there was a significant increase of 3 folds or more, in the expression of CD25 and CD29 in Jurkat cells co-cultured with A549^S25E cells. […] Additionally, to investigate the inhibitory effect of A549^S25A cells on tumor immune evasion by TAMs or TILs in the tumor microenvironment, the viability change was examined by an MTT assay analysis after co-culturing A549 cells expressing the FoxM1 phosphorylation or non-phosphorylated point mutant, THP-1 cells, and Jurkat cells at a ratio of 1:0:0, 1:6:0, 1:0:6, and 1:6:6 for 48 h. […] That is, there was the inhibitory effect of the cells expressing non-phosphorylated point mutant on the tumor immune evasion by TAMs or TILs in the tumor microenvironment. Therefore, the present invention provided the inhibitory effects of the non-phosphorylated point mutant of FoxM1 on tumor immune evasion.

Molecule | viability of A549 cells co-cultured with THP-1 cells (A549 cells [1]) | cancer metastasis to lung and tumorigenesis (tumorigenicity) (A549 cancer cells) | cancer metastasis to lung and tumorigenesis (tumorigenicity) (A549 cancer cells; listed as S325E) | degree of cancer cell proliferation by H&E and Ki67 staining (A549 cancer cells) | mRNA expression of PD-L1 (CD274) compared to the control group (A549 cells [2]; A549 cells expressing the protein) [folds] | viability of A549 cells co-cultured with Jurkat cells (A549 cells [3]; ratio 1:2, 48 h) [folds] | viability of A549 cells co-cultured with Jurkat cells (A549 cells [3]; ratio 1:4, 48 h) [folds] | viability of A549 cells co-cultured with Jurkat cells (A549 cells [3]; ratio 1:6, 48 h) [folds] | invasion of cancer cells (in words) (A549 lung cancer cells) | absorbance value at 590 nm (invasion) compared to the control group (A549 lung cancer cells; Matrigel, 7th day, control set to 1) [times] | viability change of A549 cells co-cultured with THP-1 and Jurkat cells (A549 cells [4]) | cancer metastasis to lung and tumorigenesis (tumorigenicity) (A549 cancer cells; listed as FoxM1 protein containing the non-phosphorylation point mutations) | cancer metastasis to lung and tumorigenesis (tumorigenicity) (A549 cancer cells; listed as non-phosphorylated point mutant of FoxM1) | mRNA (CD274) expression of PD-L1, reduction compared to the control group (A549 cells [2]; A549 cells expressing the mutant) | viability of A549 cells co-cultured with Jurkat cells (in words) (A549 cells [3]; compared to WT or phosphorylation mutant, 48 h) | invasion of cancer cells (in words) (A549 lung cancer cells; listed as FoxM1 non-phosphorylated point mutant) | invasion of cancer cells (in words) (A549 lung cancer cells; listed as non-phosphorylated point mutant protein of FoxM1)
B1 | gradually increased | significantly higher | highest tumorigenicity | high | 2 | 1.2 | 1.3 | 1.5 | highest cancer cell invasion | ~40 | significantly increased | – | – | – | – | – | –
B2 | not changed compared to the control group | more effective in reducing the metastasis and suppressing the tumorigenic potential | – | significantly low | – | – | – | – | – | – | reduced | relatively low | no tumors were formed | about 50% | significantly decreased | lower relative absorbance | reduced
